B1: human TRiC subunit CCT2 (natural protein, UniProt P78371 2-535, looked up)
chain: ASLSLAPVNIFKAGADEERAETARLTSFIGAIAIGDLVKSTLGPKGMDKILLSSGRDASLMVTNDGATILKNIGVDNPAAKVLVDMSRVQDDEVGDGTTSVTVLAAELLREAESLIAKKIHPQTIIAGWREATKAAREALLSSAVDHGSDEVKFRQDLMNIAGTTLSSKLLTHHKDHFTKLAVEAVLRLKGSGNLEAIHIIKKLGGSLADSYLDEGFLLDKKIGVNQPKRIENAKILIANTGMDTDKIKIFGSRVRVDSTAKVAEIEHAEKEKMKEKVERILKHGINCFINRQLIYNYPEQLFGAAGVMAIEHADFAGVERLALVTGGEIASTFDHPELVKLGSCKLIEEVMIGEDKLIHFSGVALGEACTIVLRGATQQILDEAERSLHDALCVLAQTVKDSRTVYGGGCSEMLMAHAVTQLANRTPGKEAVAMESYAKALRMLPTIIADNAGYDSADLVAQLRAAHSEGNTTAGLDMREGTIGDMAILGITESFQVKRQVLLSAAEAAEVILRVDNIIKAAPRKRVPDHHPC
modifications: N-terminal acetylation
notes: CCT2 subunit of human TRiC; initiator methionine removed (from the measured mass); also called CCTβ; source: Hi5 (Trichoplusia ni) cells, baculovirus pYC35 co-expressing CCT1-8; purified as hTRiC (calmodulin resin, monoQ, SEC); released by RP-HPLC or by 25% DMSO or methanol
B2: human TRiC subunit CCT4 (natural protein, UniProt P50991 2-539, looked up)
chain: PENVAPRSGATAGAAGGRGKGAYQDRDKPAQIRFSNISAAKAVADAIRTSLGPKGMDKMIQDGKGDVTITNDGATILKQMQVLHPAARMLVELSKAQDIEAGDGTTSVVIIAGSLLDSCTKLLQKGIHPTIISESFQKALEKGIEILTDMSRPVELSDRETLLNSATTSLNSKVVSQYSSLLSPMSVNAVMKVIDPATATSVDLRDIKIVKKLGGTIDDCELVEGLVLTQKVSNSGITRVEKAKIGLIQFCLSAPKTDMDNQIVVSDYAQMDRVLREERAYILNLVKQIKKTGCNVLLIQKSILRDALSDLALHFLNKMKIMVIKDIEREDIEFICKTIGTKPVAHIDQFTADMLGSAELAEEVNLNGSGKLLKITGCASPGKTVTIVVRGSNKLVIEEAERSIHDALCVIRCLVKKRALIAGGGAPEIELALRLTEYSRTLSGMESYCVRAFADAMEVIPSTLAENAGLNPISTVTELRNRHAQGEKTAGINVRKGGISNILEELVVQPLLVSVSALTLATETVRSILKIDDVVNTR
notes: CCT4 subunit of human TRiC; initiator methionine removed, proline exposed, not acetylated (from the measured mass); also called CCTδ; source: Hi5 (Trichoplusia ni) cells, baculovirus pYC35 co-expressing CCT1-8; purified as hTRiC (calmodulin resin, monoQ, SEC); released by RP-HPLC or by 25% DMSO or methanol

What was measured:
[1] = target: human TRiC subunit CCT8 (human) (UniProt P50990); test: native MS; hTRiC in ammonium acetate pH 7.5 disrupted with 25% (v/v) DMSO, analysed within 30 min; dimers assigned by mass within 12 Da
[2] = target: the molecule itself; test: intact mass spectrometry of reverse phase fractions (denaturing); RP-HPLC fractions of hTRiC in acetonitrile/TFA elution buffer, 0.1-0.6 μM, nanoelectrospray, QExactive Plus EMR; partially unfolded dimers; dimer masses fitted assuming disulfide formation (-2 Da)

| Molecule | percent of all dimer signal [1] [%] | stoichiometry N [2] |
| --- | --- | --- |
| human TRiC subunit CCT8 (from UniProt P50990 2-548) (natural protein) | 15 | – |
| B1 | – | 2 |
| B2 | – | 2 |

Source: publication PMC8219831, “Native mass spectrometry analyses of chaperonin complex TRiC/CCT reveal subunit N-terminal processing and re-association patterns” (Scientific Reports, 2021)
